Results on 21 variants are retold here after the RNAGym collection of RNA variant scans (doi:10.1073/pnas.2313332121).

To fix the notation:
B1: TPR t1 (parent)
chain: GACCAAUCUGCCCUCAGAGCUCGAGAACAUCUUCGGAUGCAGAGGAGGCAGGCUUCGGUGGCGCGAUAGCGCCAACGUCCUCAACCUCCAAUGCAUCCCACCACAUGAUGAUGCCUGAAGAGCCUUGGUUUUUUG

The variants in the data set derive from B1. The data set is described as follows: polymerase ribozyme fitness, log enrichment relative to wild type (log ratio); higher = more active; in vitro selection for triplet polymerase activity. The gist of the method:
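Each subunit of a heterodimeric triplet polymerase ribozyme was represented by a PCR-built, transcribed mutant library that underwent triplicate single-round in vitro selection with frozen incubation at −7 °C. Extended constructs were recovered by gel excision, streptavidin-bead capture and RT-PCR, and Illumina sequencing of input and output libraries kept genotypes with ≥10 input reads and ≥1 read per output. Fitness is the logarithm of genotype enrichment relative to wild-type enrichment, from inverse-variance-weighted replicate averages, with a logarithm base of 2.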
GACCGAUCUGCCCUCAGAGCUCGAGAACAUCUUCGGAUGCAGAGGAGGCAGGCUUCGGUGGCGCGAUAGCGCCAACGUCCUCAACCUACACUGCAUCCCACCACAUGAUGAUGGCUGAAGCGCCUUGGUUUUUUG [A5G C88A A91C C114G A121C]: the “polymerase ribozyme fitness (log ratio)” value is -0.389.

Turning to GACCGAUCUGCCCUCAGAGCUCGAGAACAUCUUCGGAUGCAGAGGAGGCAGGCUUCGGUGGCGCGAUAGCGCCAACGUCCUUAACCUCCAAUGCAUUCCACCACAUGAUGAUGCCUGAAGAGCGUAGGUUUUUUG [A5G C82U C97U C124G U126A], the “polymerase ribozyme fitness (log ratio)” value was -0.153.

With GACCGAUCUGCCCUCAGAGCUCGAGAACAUCUUCGUAUGCAGAGGAGGCAGGCUUCGGUGACGCGAUAGCGCCAACGUCCUCAACCUCCAAUGCAUCCCACCACAUGAUGCUGCCUGACGAGCCUUGGUUUUUUG [A5G G36U G61A A111C A119C], the “polymerase ribozyme fitness (log ratio)” value is -2.68.

For GACCGAUCGGCCCUCAGAGCUCGAGAACAUCUUCGGAUGCAGAGGAGGCAGGCUUCGGUGGCGCGAUAGCGCCAACGUCCUCAACCUCCAAUGCAUCCCACCACAUGAUGUUGCCUGAAGAGCCUAGGUUUUUUG [A5G U9G A111U U126A], the “polymerase ribozyme fitness (log ratio)” value was -3.21.

In the case of GACCGAUCUGCCCUCAGAGCUCGAGAACAUCUUCGGAUGCAGAGAAGGCAGGCUUCGGUGGCGCGAUAGCGCCAACGUCCUCAACCUCCAAUGCAUCCCACCACAUGAUGAUGCCUGAAGAGCCUUGGUUUUUUG [A5G G45A], the “polymerase ribozyme fitness (log ratio)” value is -0.52.

As to GACCUCUCUGCCCUCAGAGCUCGAGAACAUCUUCGGAUGCAGAGGAAGCAGGCUUCGGUGGCGCGAUAGCGCCAACGUCCUCAACCUCCAAUGCAUCCCACCACAUGAUGAUGCCUGAAGAGCCUUGGUUUUUUG [A5U A6C G47A], the “polymerase ribozyme fitness (log ratio)” value is -1.7.

On to GACCGAUCUGCCCUCAGAGCUCGAGAACAUCUUCGGAUGCAGACGAGGCAGGCUUCGGUGGCGCGAUAGCGCCAACGUCCUAAACCUCCAAUGCAUCCCACCACAUGAUGAUGCCUGAAGAGCCUUGGUUUUUUG [A5G G44C C82A], for which the “polymerase ribozyme fitness (log ratio)” value was -2.23.

As to GACCGAUCUGCCCUCAGAGCUCGAGAACAUCUUCGGAUGCAGAGGAGGCAGGCUUCGGUGGCGCGAUAGCGCCAACGUCCUCAACCUCCAAUGCAUCCCACCAAAUGAUGAUCCCUGAAGAGCCUUGGUUUUUUG [A5G C104A G113C], the “polymerase ribozyme fitness (log ratio)” value is -4.37.

As for GACCGAUCUGCCCUCAGAGCUCGAGAACAUCUUCGGAUGCAGAGGAGGCAGGCUUCGGUGGCGCGAUAGCGCCAACGUCCUCAACCUCCAAUGCAUCCCACCACAUGAUGACGCCUGAAGAGCGUUGAUUUUUUG [A5G U112C C124G G128A], the “polymerase ribozyme fitness (log ratio)” value is -0.522.

Turning to GACCGAUCUGCCCUCAGAGCUCGAGAACAUCUUCGGAUGCAGAGGAGCCAGGCUUCGGUGGCACGAUAGCGCCAACGUCCUCAACCUCCAAUGCAUCCCACCACAUGAUGAUGCCUCAAGAGCCUUGGUUUUUUG [A5G G48C G63A G117C], the “polymerase ribozyme fitness (log ratio)” value was -6.49.

As for GACCGAUCUGCCCUCAGAGCUCGAGAACAUCUUCGGAUGCAGAGGAGUCAGGCUUCGGUGGCGCGAUAGCGCAAACGUCCUCAACCUCCAAUGCAUACCACCACAUGAUGAUGCCUGAAGAGCCUUGGUUUUUUG [A5G G48U C73A C97A], the “polymerase ribozyme fitness (log ratio)” value is -5.81.

Regarding GACCUAUCUGCCCUCCGAGCUCGAGAACAUCUUCGGAUGCAGAGGAGGCAGGCUUCGGUGGCGCGAUAGCGCCAACGUCCUCAACCUCCAAUGCAUCCCACCACAUGAUGAUGCCUGAAGAGCCUUGGUUUUUUG [A5U A16C], the “polymerase ribozyme fitness (log ratio)” value is -2.72.

Consider GACCGAUCUGCCCUCAGAGCUCGAGAACAUCUUCGGAUGCAGAGGAGGCAGGCUUCGGUGGCGCGAUAGCGCCAACGUCCUCAACCUCCAAUGCAUCCCACCACAUGAUGAUGCCUGAAGAGCCUUGGUUUUUUU [A5G G135U], for which the “polymerase ribozyme fitness (log ratio)” value is -1.22.

With GACCGAUCUGCCCACAGAGCUCGAGAACAUCUUCGGAUGCAGAGGAGGCAGGCUUCGGUGGCGCGAUAGCGCUAACGUCCUCAACCUCCAAUGCAUCCCACCACAUGAUGAUGCCUGAAGAGCCUUGGUUUUUUG [A5G U14A C73U], the “polymerase ribozyme fitness (log ratio)” value is -2.23.

For GACCGAUCUGCCCUCAGAGCUCGAGAACAUCUUCGGAUGUAGAGUAGGCCGGCUUCGGUGGCGCGAUAGCGCCAACGUCCUCAACCUCCAAUGCAUCCCACCACAUGAUGAUGCCUGAAGAGCCAUGGUUUUUUG [A5G C40U G45U A50C U125A], the “polymerase ribozyme fitness (log ratio)” value is -4.22.

As to GACCGAUCUGCCCUCAGAGCUCGAGAACAUCUUCGGAUGCAGAGGAGGCAGGCUUCGGUGGAGCGAUAGCGCCAACGUCCUCAACCUCCAAUGCAUCCCACCACAUGAUGAUGCCUCAAGAGCCUUGGUUUUUUG [A5G C62A G117C], the “polymerase ribozyme fitness (log ratio)” value was -4.86.

For the variant GACCGAUCUGCCCUCAGAGCUCGAGAACAUCUUCGGAUGCAGAAUAGGCAGGCUUCGGUGGCUCGAUAGCGCCAACGUUCUCAACCUCCAAUGCAUCCCACCACAUGAUGAUGCCUGAAGAGCAUUGGUUUUUUG [A5G G44A G45U G63U C79U C124A], the “polymerase ribozyme fitness (log ratio)” value was -1.7.

Turning to GACCGAUCUGCCCUCAGAGCUCGAGAACAUCUUCGGAUGCAGAGGAGGCAGGCUUCGGUGGCGCGAUAGCGCCAACGUCCUCAACCUCCAAUGCAUCCCACCACAUGAUGAUGCCUCAAGAGCCUUGGUUUUUUG [A5G G117C], the “polymerase ribozyme fitness (log ratio)” value was -3.71.

Turning to GACCGAUCUGCCCUCAGAGCUCGAGAACAUCUUCGGAUGCAGAUGAGGCAGACUUCGGUGGCGCGAUAGCGCCAACGUCCUCAACCUCCAAUGCAUCCCACCACAUGAUGAUGCCUGAAGAGCCUUGGUUUUUUG [A5G G44U G52A], the “polymerase ribozyme fitness (log ratio)” value was -2.

Consider GACCUGUCUGCCCUCAGAGCUCGAGAACAUCUUCGGAUGCAGAGGCGGCAGGCUUCGGUGACGCGAUAGCGCCAACGUCCUCAACCUCCAAUGCAUCCCACCACAUGAUGAUGCGUGAAGAGCCUUGGUUUUUUG [A5U A6G A46C G61A C115G], for which the “polymerase ribozyme fitness (log ratio)” value is -2.35.

As to GACCGAUCUGCCCUCAGAGCUCGAGAACAUCUUCGGAUGCAGAGGAGGCAGGCUUCGGUGGCGCGAUAGCGCCAACGUCCUCAACCUCCAAUGCAUCCCACCACAUGAUGAAGCCUGAAGAGCCUUUGUUUUUUG [A5G U112A G127U], the “polymerase ribozyme fitness (log ratio)” value was determined as 0.804.
